According to publication PMC8546227:

Biological target: Hoc^-Soc^- T4 phage capsid (bacteriophage T4) (UniProt P19896)
Assay: co-sedimentation

Chain of UniProt P19896 (P19896 whole entry, looked up): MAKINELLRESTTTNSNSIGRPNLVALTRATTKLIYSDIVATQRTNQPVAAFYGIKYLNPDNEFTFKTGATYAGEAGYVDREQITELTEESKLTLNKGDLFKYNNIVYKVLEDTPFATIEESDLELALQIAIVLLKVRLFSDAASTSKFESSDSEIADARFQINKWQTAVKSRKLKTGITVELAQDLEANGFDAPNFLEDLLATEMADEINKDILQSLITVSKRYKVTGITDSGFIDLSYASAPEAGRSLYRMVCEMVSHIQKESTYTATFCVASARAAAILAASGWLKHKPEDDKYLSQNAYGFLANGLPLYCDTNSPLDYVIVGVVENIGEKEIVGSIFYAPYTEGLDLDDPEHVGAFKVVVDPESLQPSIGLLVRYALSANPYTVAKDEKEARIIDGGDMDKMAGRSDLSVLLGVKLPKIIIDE

With “Soc-3M2e fusion protein (RB69 Soc with three tandem copies of M2e from human, swine and avian influe” the Kd was 305 nM.
